# Experimental data taken from patent US20200231671A1 (E R SQUIBB AND SONS L L C, published 2020).
# Numbering of substitutions follows the chain as printed.
# T1: rhesus monkey LAG-3, clone pa23-5 (cell surface, CHO) (rhesus monkey, UniProt P18627 24-525 (human entry))
# T1 construct: also called CHO-rhesus LAG3
# T1 chain: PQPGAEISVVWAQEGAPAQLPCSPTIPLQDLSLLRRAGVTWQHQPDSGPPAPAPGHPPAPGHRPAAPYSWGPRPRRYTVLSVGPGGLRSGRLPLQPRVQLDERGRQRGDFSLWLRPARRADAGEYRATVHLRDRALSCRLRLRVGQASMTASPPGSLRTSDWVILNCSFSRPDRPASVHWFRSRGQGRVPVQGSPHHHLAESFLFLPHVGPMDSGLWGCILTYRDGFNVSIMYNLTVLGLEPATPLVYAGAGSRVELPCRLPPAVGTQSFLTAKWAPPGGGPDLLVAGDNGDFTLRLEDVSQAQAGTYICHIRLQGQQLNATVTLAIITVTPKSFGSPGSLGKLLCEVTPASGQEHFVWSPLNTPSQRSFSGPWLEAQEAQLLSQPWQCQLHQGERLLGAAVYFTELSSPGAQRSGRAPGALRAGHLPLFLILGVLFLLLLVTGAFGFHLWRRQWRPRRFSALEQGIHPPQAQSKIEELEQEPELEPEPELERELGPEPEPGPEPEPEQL
# T2: recombinant human LAG-3 fusion protein (human, UniProt P18627 23-450)
# T2 construct: also called recombinant LAG-3 protein
# T2 sequence (looked up): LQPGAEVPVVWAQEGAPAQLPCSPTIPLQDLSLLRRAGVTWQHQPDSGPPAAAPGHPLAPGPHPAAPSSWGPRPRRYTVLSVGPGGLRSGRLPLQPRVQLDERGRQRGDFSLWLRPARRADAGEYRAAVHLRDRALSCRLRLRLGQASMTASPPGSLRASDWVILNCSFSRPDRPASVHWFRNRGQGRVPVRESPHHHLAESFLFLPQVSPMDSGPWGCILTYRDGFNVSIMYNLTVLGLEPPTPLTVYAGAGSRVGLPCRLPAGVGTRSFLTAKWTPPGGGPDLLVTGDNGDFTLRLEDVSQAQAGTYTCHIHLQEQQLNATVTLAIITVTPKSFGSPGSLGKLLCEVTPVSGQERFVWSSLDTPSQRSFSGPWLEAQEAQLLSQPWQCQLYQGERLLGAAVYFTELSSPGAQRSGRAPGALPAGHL
# T3: human LAG-3 full-length extra loop peptide (human, conjugated to biotin)
# T3 construct: Exposed extra loop of the immunoglobulin-like first extracellular domain of LAG-3; also called LAG-3 extra loop
# T3 peptide: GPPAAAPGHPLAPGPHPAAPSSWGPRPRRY
# B1: 25F7 human monoclonal antibody (antibody, IgG1, V domains shown)
# VH: QVQLQQWGAGLLKPSETLSLTCAVYGGSFSDYYWNWIRQPPGKGLEWIGEINHNGNTNSNPSLKSRVTLSLDTSKNQFSLKLRSVTAADTAVYYCAFGYSDYEYNWFDPWGQGTLVTVSS
# VL: EIVLTQSPATLSLSPGERATLSCRASQSISSYLAWYQQKPGQAPRLLIYDASNRATGIPARFSGSGSGTDFTLTISSLEPEDFAVYYCQQRSNWPLTFGQGTNLEIK
# notes: also called 25F7-FITC (IgG1 version)
# B2: 26H10 human monoclonal antibody (antibody, IgG1, V domains shown)
# VH: QVQLVESGGGVVQPGRSLRLSCAASGFTFSSYGMHWVRQAPGKGLEWVAVIWYDGSNKYYADSVKGRFTISRDNSKNTLYLQMNSLRAEDTAVYYCAREWAVASWDYGMDVWGQGTTVTVSS
# VL: not shown
# notes: also called 26H10-FITC
# B3: 8B7 human monoclonal antibody (antibody, IgG4, V domains shown)
# VH: QVQLQQWGAGLLKPSETLSLTCAVYGGSFSGYYWSWIRQPPGKGLEWIGEINHRGNTNCNPSLKSRVTISGDTSKKQFALKLNSVTAADTAVYYCARGYDILTGYYEDSWGPGTLVTVSS
# VL: B1 VL with I29V, D50N, Q100G, N103K, L104V
# notes: also called 8B7-FITC
# B4: 25E3 human monoclonal antibody (antibody, IgG1, V domains shown)
# VH: EVQLVESGGGVVRPGGSLRLSCAASGFTFDDYGMSWVRQAPGKGLEWVSGINWNGGSTYYADSVKGRFTISGDNAKNSLYLQMNSLRAEDTALYYCTTGGYWGQGTLVTVSS
# VL: AIQLTQSPSSLSASVGDRVTITCRASQGIRSALAWYQQKPGKAPKLLIYDASSLESGVPSRFSGSGSGTDFTLTISSLQPEDFATYYCQQFNSYPYTFGQGTKLEIK
# Legend:
# [1] = target: T1, rhesus monkey LAG-3, clone pa23-5 (cell …); assay: flow cytometry, CHO cells expressing rhesus LAG-3
# Source text: The cDNA of clone pa23-5 was inserted into an expression construct, which was transfected into CHO-S suspension cells by nucleofection (Amaxa). Rhesus LAG-3 expression by sorted, selection drug-resistant clones was verified by FACS analysis. This clonal CHO cell line over-expressing rhesus LAG-3 was used in similar FACS assays to those described above to measure antibody cross reactivity to the monkey protein. Briefly, the 25F7, 8B7 and 26H10 monoclonal antibodies were serially diluted with cold 1×PFAE buffer (1×PBS+2% FBS, 0.02% sodium azide, 2 mM Na EDTA). For the binding reaction, 50 μl of diluted antibody solution was added to a 50 μl cell suspension containing 2×10⁵ cells and the mixture was incubated on ice for 30 minutes. The cells were processed by the same protocol described above. The analysis of antibody binding was conducted as described above.
# [2] = target: T2, recombinant human LAG-3 fusion protein; assay: BIAcore, antibody captured on anti-CH1, 20 nM LAG-3 fusion protein injected
# Method: The binding of the 25E3, 25F7, 8B7, 26H10 and 17E5 antibodies to recombinant LAG-3 protein was examined by BIAcore™ using a capture method. The 25E3, 25F7, 8B7, 26H10 and 17E5 antibodies each were captured using anti-CH1, a reagent antibody that is specific towards the heavy chain constant region 1 of human antibody (Zymed, Clone HP6045, Stock conc. 1.0 mg/mL). Anti-CH1 was coated on a CMS chip (BR-1000-14, Research Grade) at high density (9700-11500RUs). The coating was carried out based on the standard immobilization procedure recommended by the manufacturer. The 25E3, 25F7, 8B7, 26H10 or 17E5 purified antibody, with concentrations ranging from 0.5-3 μg/mL, was then captured on the anti-CH1 coated surface at the flow-rate of 10 uL/min for 1 minute. A single concentration of recombinant human LAG-3 fusion protein (20 nM) was injected over captured antibody for 3 minutes at a flow rate of […]. The antigen was allowed to dissociate for 7.5 minutes. The chip surface was regenerated after each cycle with 25 μL, of 25 mM NaOH followed by 30 μL of HBS-EP wash. Isotype controls were run on the chip, and the data used to subtract non-specific binding. All the experiments were carried out on a Biacore 3000 surface plasmon resonance instrument, using BIAcore Control software v 3.2. Data analysis was carried out using BiaEvaluation v3.2 software. The BIAcore results for 25E3, 25F7, 8B7, 26H10 and 17E5 confirm the flow cytometry results that all five antibodies are capable of binding with high affinity to human LAG-3.
# [3] = target: T3, human LAG-3 full-length extra loop …; assay: ELISA on human full-length extra loop peptide
# Method: To further examine binding of these antibodies to the extra loop peptide region, additional ELISA assays were performed. In an ELISA assay using the human full-length extra loop peptide (SEQ ID NO: 79), EC₅₀ values for binding were determined for 25E3, 25F7 and 8B7. Additionally, a similar peptide ELISA was conducted using the full length extra loop peptide sequence from rhesus monkey LAG-3, having the sequence […] (SEQ ID NO: 90), and EC₅₀ values for binding were determined for 25F7 and 8B7. […] Moreover, antibodies 25F7 and 8B7 also bind to the rhesus LAG-3 extra loop peptide region, albeit less well compared to the human sequence, which may be due to the species sequence divergence in this polypeptide. The results also confirm that the 26H10 antibody is not capable of recognizing the LAG-3 extra loop peptide.
# [4] = target: T4, cynomolgus monkey LAG-3 on activated cynomolgus monkey T cells (cynomolgus monkey); assay: flow cytometry, activated cynomolgus CD4+ T cells
# T4 construct: whole, on cells
# Method: To test the ability of the antibodies to bind to native human LAG-3 on the surface of activated human T cells, resting CD4⁺ T cells were isolated from purified peripheral blood mononuclear cells and subjected to three days of stimulation with a combination of anti-CD3 and anti-CD28 antibodies affixed to polystyrene beads. The 25F7, 8B7 and 26H10 monoclonal antibodies were serially diluted with cold 1×PFAE buffer (1×PBS+2% FBS, 0.02% sodium azide, 2 mM Na EDTA). For the binding reaction, 50 μl of diluted antibody solution was mixed with 50 μl of PE-labeled anti-human CD4 (BD Bioscience, Cat # 555347). Activated T cells were processed by the same protocol described above. The analysis of antibody binding was conducted as described above.
# In a separate experiment, the antibodies were tested for binding to cynomolgus monkey LAG-3 using activated cynomolgus monkey T cells. In vitro activation of these monkey T cells was achieved through anti-CD³/anti-CD28 treatment of the T cells by essentially the same protocol described above for the in vitro activation of human T cells, followed by flow cytometry analysis performed as described above for staining of in vitro activated human CD4⁺ T cells.
Binder,EC50 [1],Kd [2],EC50 [3],EC50 [4],binding result [3]
B1,22.7 nM,0.47 nM,0.29 to 0.95 nM,14.2 nM,
B2,4.68 nM,0.1 nM,,5.19 nM,no binding
B3,10 nM,0.09 nM,0.28 to 1.35 nM,30.4 nM,
B4,,0.09 nM,0.55 nM,,
